Source: patent publication US20200277360A1 (UNIVERSITY OF MANCHESTER, published 2020)
Blank lines part the entries; values can stand above or below the binder they belong to.

Key:
C3b [1] = molecular target: C3b
C3b [2] = molecular target: T1, C3b (human, UniProt P01024 23-667; P01024 749-1663); experiment: Bio-Layer Interferometry
T1 construct: also called purified C3b
T1 sequence (P01024 23-667 limits assumed, chain 1 of 2): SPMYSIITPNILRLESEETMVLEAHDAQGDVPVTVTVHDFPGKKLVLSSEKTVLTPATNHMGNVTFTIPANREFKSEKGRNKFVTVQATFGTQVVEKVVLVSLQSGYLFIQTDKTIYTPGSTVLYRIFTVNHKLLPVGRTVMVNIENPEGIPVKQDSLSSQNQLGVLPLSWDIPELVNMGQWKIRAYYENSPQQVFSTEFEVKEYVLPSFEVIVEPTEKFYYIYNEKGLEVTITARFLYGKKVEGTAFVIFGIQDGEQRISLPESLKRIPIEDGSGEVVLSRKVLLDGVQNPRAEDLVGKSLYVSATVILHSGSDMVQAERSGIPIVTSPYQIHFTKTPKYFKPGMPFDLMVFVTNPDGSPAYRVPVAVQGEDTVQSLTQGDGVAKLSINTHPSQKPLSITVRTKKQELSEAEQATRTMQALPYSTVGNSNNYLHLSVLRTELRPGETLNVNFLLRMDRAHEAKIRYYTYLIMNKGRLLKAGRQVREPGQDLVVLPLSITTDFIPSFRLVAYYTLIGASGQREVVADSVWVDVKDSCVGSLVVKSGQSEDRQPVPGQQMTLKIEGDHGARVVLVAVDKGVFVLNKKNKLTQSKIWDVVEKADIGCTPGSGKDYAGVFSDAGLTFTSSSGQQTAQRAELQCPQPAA
T1 sequence (P01024 749-1663 limits assumed, chain 2 of 2): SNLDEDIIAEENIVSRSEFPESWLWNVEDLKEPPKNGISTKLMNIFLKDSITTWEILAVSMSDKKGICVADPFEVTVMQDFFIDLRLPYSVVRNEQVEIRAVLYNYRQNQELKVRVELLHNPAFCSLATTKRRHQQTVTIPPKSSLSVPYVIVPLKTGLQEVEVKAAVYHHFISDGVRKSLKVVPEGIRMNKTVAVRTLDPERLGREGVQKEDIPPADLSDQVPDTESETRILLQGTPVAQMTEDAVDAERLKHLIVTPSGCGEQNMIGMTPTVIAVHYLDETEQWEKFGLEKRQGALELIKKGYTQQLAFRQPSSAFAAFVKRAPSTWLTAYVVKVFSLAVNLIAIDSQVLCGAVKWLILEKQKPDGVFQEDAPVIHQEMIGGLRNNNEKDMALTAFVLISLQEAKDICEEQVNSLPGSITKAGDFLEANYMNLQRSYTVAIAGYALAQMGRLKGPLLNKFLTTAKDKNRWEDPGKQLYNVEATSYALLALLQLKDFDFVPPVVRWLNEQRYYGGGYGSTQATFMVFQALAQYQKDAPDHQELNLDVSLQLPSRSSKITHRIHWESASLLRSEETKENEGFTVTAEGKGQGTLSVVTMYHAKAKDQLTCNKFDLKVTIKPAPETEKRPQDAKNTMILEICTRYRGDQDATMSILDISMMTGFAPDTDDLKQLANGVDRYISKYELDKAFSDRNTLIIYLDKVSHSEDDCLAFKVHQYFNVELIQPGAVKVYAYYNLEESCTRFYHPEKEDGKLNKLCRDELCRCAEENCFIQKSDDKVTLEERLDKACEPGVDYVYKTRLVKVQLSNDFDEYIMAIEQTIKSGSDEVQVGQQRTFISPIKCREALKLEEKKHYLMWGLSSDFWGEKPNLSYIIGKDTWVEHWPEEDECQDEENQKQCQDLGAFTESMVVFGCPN

B1: Complement Factor I (protein)
chain 1: KVTYTSQEDLVEKKCLAKKYTHLSCDKVFCQPWQRCIEGTCVCKLPYQCPKNGTAVCATNRRSFPTYCQQKSLECLHPGTKFLNNGTCTAEGKFSVSLKHGNTDSEGIVEVKLVDQDKTMFICKSSWSMREANVACLDLGFQQGADTQRRFKLSDLSINSTECLHVHCRGLETSLAECTFTKRRTMGYQDFADVVCYTQKADSPMDDFFQCVNGKYISQMKACDGINDCGDQSDELCCKACQGKGFHCKSGVCIPSQYQCNGEVDCITGEDEVGCAGFASVTQEETEILTADMDAERRRIKSLLPKLSCGVKNRMHI
chain 2: IVGGKRAQLGDLPWQVAIKDASGITCGGIYIGGCWILTAAHCLRASKTHRYQIWTTVVDWIHPDLKRIVIEYVDRIIFHENYNAGTYQNDIALIEMKKDGNKKDCELPRSIPACVPWSPYLFQPNDTCIVSGWGREKDNERVFSLQWGEVKLISNCSKFYGNRFYEKEMECAGTYDGSIDACKGDSGGPLVCMDANNVTYVWGVVSWGENCGKPEFPGVYTKVANYFDWISYHVGRPFISQYNV
C3b alpha-chain breakdown (Instant Blue stained gel), with FHL-1 as co-factor (C3b [1]): It was possible to observe the breakdown of the α-chain of C3b in the presence of FHL-1 and FI

B2: Complement Factor H isoform FHL-1 (other)
chain: EDCNELPPRRNTEILTGSWSDQTYPEGTQAIYKCRPGYRSLGNVIMVCRKGEWVALNPLRKCQKRPCGHPGDTPFGTFTLTGGNVFEYGVKAVYTCNEGYQLLGEINYRECDTDGWTNDIPICEVVKCLPVTAPENGKIVSSAMEPDREYHFGQAVRFVCNSGYKIEGDEEMHCSDDGFWSKEKPKCVEISCKSPDVINGSPISQKIIYKENERFQYKCNMGYEYSERGDAVCTESGWRPLPSCEEKSCDNPYIPNGDYSPLRIKHRTGDEITYQCRNGFYPATRGNTAKCTSTGWIPAPRCTLKPCDYPDIKHGGLYHENMRRPYFPVAVGKYYSYYCDEHFETPSGSYWDHIHCTQDGWSPAVPCLRKCYFPYLENGYNQNYGRKFVQGKSIDVACHPGYALPKAQTTVTCMENGWSPTPRCIRVSFTL
notes: Positive control in the BLI assay; also called factor H-like protein 1
Kd (C3b [2]): 1170 nM

B4: deglycosylated chimeric FH-FI polypeptide (other)
chain: GSSGEDCNELPPRRNTEILTGSWSDQTYPEGTQAIYKCRPGYRSLGNIIMVCRKGEWVALNPLRKCQKRPCGHPGDTPFGTFTLTGGNVFEYGVKAVYTCNEGYQLLGEINYRECDTDGWTNDIPICEVVKCLPVTAPENGKIVSSAMEPDREYHFGQAVRFVCNSGYKIEGDEEMHCSDDGFWSKEKPKCVEISCKSPDVINGSPISQKIIYKENERFQYKCNMGYEYSERGDAVCTESGWRPLPSCEEGGGGSRGGGGSGGGGSIVGGKRAQLGDLPWQVAIKDASGITCGGIYIGGCWILTAAHCLRASKTHRYQIWTTVVDWIHPDLKRIVIEYVDRIIFHENYNAGTYQNDIALIEMKKDGNKKDCELPRSIPAAVPWSPYLFQPNDTCIVSGWGREKDNERVFSLQWGEVKLISNCSKFYGNRFYEKEMECAGTYDGSIDACKGDSGGPLVCMDANNVTYVWGVVSWGENCGKPEFPGVYTKVANYFDWISYHVGRPFISQYNV
modifications: N-glycans removed with PNGase F under non-denaturing conditions
notes: It is not the N464Q/N494Q/N536Q mutant; also called dFH-FI; dChimera
Kd (C3b [2]): 47.6 nM

Further binders by falling Kd (C3b [2]), results first:

Kd (C3b [2]): 583 nM
B5: Complement Factor H (other)
chain: EDCNELPPRRNTEILTGSWSDQTYPEGTQAIYKCRPGYRSLGNVIMVCRKGEWVALNPLRKCQKRPCGHPGDTPFGTFTLTGGNVFEYGVKAVYTCNEGYQLLGEINYRECDTDGWTNDIPICEVVKCLPVTAPENGKIVSSAMEPDREYHFGQAVRFVCNSGYKIEGDEEMHCSDDGFWSKEKPKCVEISCKSPDVINGSPISQKIIYKENERFQYKCNMGYEYSERGDAVCTESGWRPLPSCEEKSCDNPYIPNGDYSPLRIKHRTGDEITYQCRNGFYPATRGNTAKCTSTGWIPAPRCTLKPCDYPDIKHGGLYHENMRRPYFPVAVGKYYSYYCDEHFETPSGSYWDHIHCTQDGWSPAVPCLRKCYFPYLENGYNQNYGRKFVQGKSIDVACHPGYALPKAQTTVTCMENGWSPTPRCIRVKTCSKSSIDIENGFISESQYTYALKEKAKYQCKLGYVTADGETSGSITCGKDGWSAQPTCIKSCDIPVFMNARTKNDFTWFKLNDTLDYECHDGYESNTGSTTGSIVCGYNGWSDLPICYERECELPKIDVHLVPDRKKDQYKVGEVLKFSCKPGFTIVGPNSVQCYHFGLSPDLPICKEQVQSCGPPPELLNGNVKEKTKEEYGHSEVVEYYCNPRFLMKGPNKIQCVDGEWTTLPVCIVEESTCGDIPELEHGWAQLSSPPYYYGDSVEFNCSESFTMIGHRSITCIHGVWTQLPQCVAIDKLKKCKSSNLIILEEHLKNKKEFDHNSNIRYRCRGKEGWIHTVCINGRWDPEVNCSMAQIQLCPPPPQIPNSHNMTTTLNYRDGEKVSVLCQENYLIQEGEEITCKDGRWQSIPLCVEKIPCSQPPQIEHGTINSSRSSQESYAHGTKLSYTCEGGFRISEENETTCYMGKWSSPPQCEGLPCKSPPEISHGVVAHMSDSYQYGEEVTYKCFEGFGIDGPAIAKCLGEKWSHPPSCIKTDCLSLPSFENAIPMGEKKDVYKAGEQVTYTCATYYKMDGASNVTCINSRWTGRPTCRDTSCVNPPTVQNAYIVSRQMSKYPSGERVRYQCRSPYEMFGDEEVMCLNGNWTEPPQCKDSTGKCGPPPPIDNGDITSFPLSVYAPASSVEYQCQNLYQLEGNKRITCRNGQWSEPPKCLHPCVISREIMENYNIALRWTAKQKLYSRTGESVEFVCKRGYRLSSRSHTLRTTCWDGKLEYPTCAKR
notes: Positive control in the BLI assay; also called FH

Kd (C3b [2]): 5.21 nM
B3: glycosylated chimeric FH-FI polypeptide (other)
chain: B4 chain
modifications: N-glycans on the Complement Factor I proteolytic domain (glycosylated form)
notes: It consists of the Factor H co-factor region (CCPs 1-4), a G4S-R-(G4S)2 linker and the Factor I proteolytic domain; also called Chimera
